In PMC9482650, “Quantitative fragmentomics allow affinity mapping of interactomes” (Nature Communications, 2022):

T1: NHERF3_1, Q5T2W1
T1 sequence (Q5T2W1 4-100, limits assumed, looked up): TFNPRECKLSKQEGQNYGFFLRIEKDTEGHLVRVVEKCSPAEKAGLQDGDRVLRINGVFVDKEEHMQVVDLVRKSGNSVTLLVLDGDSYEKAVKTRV

T2: SIPA1L2, Q9P2F8
T2 sequence (Q9P2F8 945-1036, limits assumed, looked up): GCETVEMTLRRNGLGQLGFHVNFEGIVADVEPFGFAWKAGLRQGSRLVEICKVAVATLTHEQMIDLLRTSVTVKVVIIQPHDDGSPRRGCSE

T3: DFNB31_3, Q9P202
T3 sequence (Q9P202 811-907, limits assumed, looked up): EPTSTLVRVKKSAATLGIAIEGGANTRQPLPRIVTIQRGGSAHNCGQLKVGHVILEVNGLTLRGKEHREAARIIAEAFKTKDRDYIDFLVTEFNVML

T4: DFNB31_2, Q9P202
T4 sequence (Q9P202 274-371, limits assumed, looked up): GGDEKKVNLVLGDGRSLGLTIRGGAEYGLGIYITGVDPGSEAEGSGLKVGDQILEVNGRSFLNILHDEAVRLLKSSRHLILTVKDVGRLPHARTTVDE

T5: NHERF3_4, Q5T2W1
T5 sequence (Q5T2W1 373-468, limits assumed, looked up): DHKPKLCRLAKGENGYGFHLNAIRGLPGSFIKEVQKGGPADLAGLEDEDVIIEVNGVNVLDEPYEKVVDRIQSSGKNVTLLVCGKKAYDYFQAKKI

T6: CARD11, Q9BXL7
T6 sequence (Q9BXL7 662-765, limits assumed, looked up): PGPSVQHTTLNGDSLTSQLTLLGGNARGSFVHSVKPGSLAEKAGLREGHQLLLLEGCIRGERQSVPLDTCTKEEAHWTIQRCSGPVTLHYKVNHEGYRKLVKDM

T7: MPP6, Q9NZW5
T7 sequence (Q9NZW5 125-219, limits assumed, looked up): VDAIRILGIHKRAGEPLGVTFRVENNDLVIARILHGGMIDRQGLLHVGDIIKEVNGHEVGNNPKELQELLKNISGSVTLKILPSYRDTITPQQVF

T8: PCLO, Q9Y6V0
T8 sequence (Q9Y6V0 4491-4600, limits assumed, looked up): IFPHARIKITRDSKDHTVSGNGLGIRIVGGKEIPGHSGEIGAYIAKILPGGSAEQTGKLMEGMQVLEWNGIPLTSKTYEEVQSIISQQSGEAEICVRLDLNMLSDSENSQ

T9: LIN7A, O14910
T9 sequence (O14910 103-200, limits assumed, looked up): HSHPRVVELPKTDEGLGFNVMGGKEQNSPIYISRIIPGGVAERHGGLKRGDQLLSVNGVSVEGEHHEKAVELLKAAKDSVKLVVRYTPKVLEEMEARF

T10: MPDZ_5, O75970
T10 sequence (O75970 695-796, limits assumed, looked up): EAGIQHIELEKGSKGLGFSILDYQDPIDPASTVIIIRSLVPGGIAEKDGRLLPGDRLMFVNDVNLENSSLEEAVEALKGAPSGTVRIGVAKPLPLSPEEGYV

T11: PDZD2_2, O15018
T11 sequence (O15018 329-429, limits assumed, looked up): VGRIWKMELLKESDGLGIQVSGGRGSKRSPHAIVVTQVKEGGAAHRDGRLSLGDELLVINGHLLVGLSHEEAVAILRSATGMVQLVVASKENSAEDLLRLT

T12: SNTA1, Q13424
T12 sequence (Q13424 82-180, limits assumed, looked up): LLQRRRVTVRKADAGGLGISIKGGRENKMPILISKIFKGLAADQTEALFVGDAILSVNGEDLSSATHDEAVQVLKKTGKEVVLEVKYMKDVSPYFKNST


Tests used:
Test in all cases: holdup assay
Set-up in all cases: key: below the threshold = too weak to quantify, mostly under pKd 3.1 to 4
Conditions in all cases: plain residues with an end cap or a label only (N-terminal biotin on a linker: ado-ado)
NHERF3_1, Q5T2W1 = molecular target: T1, NHERF3_1, Q5T2W1
SIPA1L2, Q9P2F8 = molecular target: T2, SIPA1L2, Q9P2F8
MAST1, Q9Y2H9 = molecular target: MAST1, Q9Y2H9
MAST1, Q9Y2H9, sequence (Q9Y2H9 962-1065): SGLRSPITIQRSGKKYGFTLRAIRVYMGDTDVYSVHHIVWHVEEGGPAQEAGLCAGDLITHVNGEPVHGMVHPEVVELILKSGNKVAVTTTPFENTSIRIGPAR

IL16_3, Q14005 = molecular target: IL16_3, Q14005
IL16_3, Q14005, sequence (Q14005 1107-1207): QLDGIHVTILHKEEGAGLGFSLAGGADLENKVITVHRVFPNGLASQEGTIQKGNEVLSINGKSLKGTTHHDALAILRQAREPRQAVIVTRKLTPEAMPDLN

GRID2IP_2, A4D2P6 = molecular target: GRID2IP_2, A4D2P6
GRID2IP_2, A4D2P6, sequence (A4D2P6 272-370): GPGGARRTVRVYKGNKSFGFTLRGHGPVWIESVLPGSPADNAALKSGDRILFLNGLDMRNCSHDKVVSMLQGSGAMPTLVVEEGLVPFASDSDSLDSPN

DFNB31_3, Q9P202 = molecular target: T3, DFNB31_3, Q9P202
DLG2_3, Q15700 = molecular target: DLG2_3, Q15700
DFNB31_2, Q9P202 = molecular target: T4, DFNB31_2, Q9P202
FRMPD2_2, Q68DX3 = molecular target: FRMPD2_2, Q68DX3
FRMPD2_2, Q68DX3, sequence (Q68DX3 944-1038): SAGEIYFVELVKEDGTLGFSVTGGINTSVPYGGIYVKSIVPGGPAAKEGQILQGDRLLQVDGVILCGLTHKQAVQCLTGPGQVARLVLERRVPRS

DLG1_1, Q12959 = molecular target: DLG1_1, Q12959
NHERF3_4, Q5T2W1 = molecular target: T5, NHERF3_4, Q5T2W1
GRIP2_6, Q9C0E4 = molecular target: GRIP2_6, Q9C0E4
GRIP2_6, Q9C0E4, sequence (Q9C0E4 648-740): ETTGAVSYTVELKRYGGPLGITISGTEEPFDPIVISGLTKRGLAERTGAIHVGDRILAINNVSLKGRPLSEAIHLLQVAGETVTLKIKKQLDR

MAGI2_2, Q86UL8 = molecular target: MAGI2_2, Q86UL8
MAGI2_2, Q86UL8, sequence (Q86UL8 410-522): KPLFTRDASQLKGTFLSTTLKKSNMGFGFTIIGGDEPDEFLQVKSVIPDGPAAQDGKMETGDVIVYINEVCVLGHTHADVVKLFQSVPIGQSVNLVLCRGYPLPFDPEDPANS

CARD11, Q9BXL7 = molecular target: T6, CARD11, Q9BXL7
GIPC2, Q8TF65 = molecular target: GIPC2, Q8TF65
GIPC2, Q8TF65, sequence (Q8TF65 112-203): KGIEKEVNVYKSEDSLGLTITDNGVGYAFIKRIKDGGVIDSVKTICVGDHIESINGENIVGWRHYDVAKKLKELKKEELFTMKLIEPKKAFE

FRMPD2_3, Q68DX3 = molecular target: FRMPD2_3, Q68DX3
FRMPD2_3, Q68DX3, sequence (Q68DX3 1073-1166): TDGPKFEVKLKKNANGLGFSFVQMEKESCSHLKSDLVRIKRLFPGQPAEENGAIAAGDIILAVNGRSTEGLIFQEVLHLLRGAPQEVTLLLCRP

MPP6, Q9NZW5 = molecular target: T7, MPP6, Q9NZW5
GRASP, Q7Z6J2 = molecular target: GRASP, Q7Z6J2
GRASP, Q7Z6J2, sequence (Q7Z6J2 96-193): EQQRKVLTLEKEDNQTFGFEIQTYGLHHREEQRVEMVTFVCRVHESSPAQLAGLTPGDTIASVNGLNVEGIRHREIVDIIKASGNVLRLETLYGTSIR

PCLO, Q9Y6V0 = molecular target: T8, PCLO, Q9Y6V0
LIN7A, O14910 = molecular target: T9, LIN7A, O14910
MPDZ_5, O75970 = molecular target: T10, MPDZ_5, O75970
DLG1_2, Q12959 = molecular target: DLG1_2, Q12959
PDZD2_2, O15018 = molecular target: T11, PDZD2_2, O15018
GRIP2_5, Q9C0E4 = molecular target: GRIP2_5, Q9C0E4
GRIP2_5, Q9C0E4, sequence (Q9C0E4 544-642): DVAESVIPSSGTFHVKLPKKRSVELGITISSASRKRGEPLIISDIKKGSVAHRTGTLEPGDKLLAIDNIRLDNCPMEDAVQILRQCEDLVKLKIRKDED

NHERF2_2, Q15599 = molecular target: NHERF2_2, Q15599
NHERF2_2, Q15599, sequence (Q15599 142-238): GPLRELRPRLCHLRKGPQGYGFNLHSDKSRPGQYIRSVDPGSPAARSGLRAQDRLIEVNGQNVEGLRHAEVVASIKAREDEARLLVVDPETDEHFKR

SNTA1, Q13424 = molecular target: T12, SNTA1, Q13424

| Binder | pKd (NHERF3_1, Q5T2W1) | pKd (SIPA1L2, Q9P2F8) | pKd (MAST1, Q9Y2H9) | pKd (IL16_3, Q14005) | pKd (GRID2IP_2, A4D2P6) | pKd (DFNB31_3, Q9P202) | pKd (DLG2_3, Q15700) | pKd (DFNB31_2, Q9P202) | pKd (FRMPD2_2, Q68DX3) | pKd (DLG1_1, Q12959) | pKd (NHERF3_4, Q5T2W1) | pKd (GRIP2_6, Q9C0E4) | pKd (MAGI2_2, Q86UL8) | pKd (CARD11, Q9BXL7) | pKd (GIPC2, Q8TF65) | pKd (FRMPD2_3, Q68DX3) | pKd (MPP6, Q9NZW5) | pKd (GRASP, Q7Z6J2) | pKd (PCLO, Q9Y6V0) | pKd (LIN7A, O14910) | other results |
| --- | --- | --- | --- | --- | --- | --- | --- | --- | --- | --- | --- | --- | --- | --- | --- | --- | --- | --- | --- | --- | --- |
| YRLAQESGLV [ABCC6, O95255] | 3.76 | below the threshold | 3.59 | below the threshold | below the threshold | 3.94 | below the threshold | below the threshold | below the threshold | below the threshold | below the threshold | below the threshold | below the threshold | below the threshold | below the threshold | below the threshold | 3.74 | below the threshold | below the threshold | below the threshold | pKd (MPDZ_5, O75970): below the threshold; pKd (DLG1_2, Q12959): below the threshold; pKd (PDZD2_2, O15018): 3.51; pKd (GRIP2_5, Q9C0E4): below the threshold; pKd (NHERF2_2, Q15599): below the threshold; pKd (SNTA1, Q13424): below the threshold |
| LKVPPEERLI [CRB2, Q5IJ48] | below the threshold | below the threshold | 3.58 | below the threshold | below the threshold | below the threshold | below the threshold | below the threshold | below the threshold | below the threshold | below the threshold | below the threshold | below the threshold | below the threshold | below the threshold | below the threshold | 3.68 | below the threshold | below the threshold | below the threshold | pKd (MPDZ_5, O75970): below the threshold; pKd (DLG1_2, Q12959): below the threshold; pKd (PDZD2_2, O15018): below the threshold; pKd (GRIP2_5, Q9C0E4): below the threshold; pKd (NHERF2_2, Q15599): below the threshold; pKd (SNTA1, Q13424): below the threshold |
| SGSLKLMTTV [DACT1, Q9NYF0] | below the threshold | below the threshold | 3.97 | below the threshold | 3.97 | 4.03 | 4.4 | below the threshold | below the threshold | 4.92 | below the threshold | below the threshold | 5.28 | below the threshold | below the threshold | below the threshold | below the threshold | 4.02 | below the threshold | 3.68 | pKd (MPDZ_5, O75970): below the threshold; pKd (DLG1_2, Q12959): 5.54; pKd (PDZD2_2, O15018): 3.92; pKd (GRIP2_5, Q9C0E4): below the threshold; pKd (NHERF2_2, Q15599): below the threshold; pKd (SNTA1, Q13424): 3.49 |
| ETQVTAETVI [TMEM225B, P0DP42] | 4.68 | below the threshold | 4.31 | below the threshold | below the threshold | 4.03 | 3.66 | below the threshold | below the threshold | 3.91 | below the threshold | below the threshold | below the threshold | below the threshold | below the threshold | below the threshold | below the threshold | below the threshold | below the threshold | below the threshold | pKd (MPDZ_5, O75970): below the threshold; pKd (DLG1_2, Q12959): 4.37; pKd (PDZD2_2, O15018): 3.92; pKd (GRIP2_5, Q9C0E4): below the threshold; pKd (NHERF2_2, Q15599): below the threshold; pKd (SNTA1, Q13424): 4.68 |
| SNAGNTATKA [NOSTRIN, Q8IVI9] | below the threshold | below the threshold | below the threshold | below the threshold | below the threshold | below the threshold | 3.6 | below the threshold | below the threshold | below the threshold | below the threshold | below the threshold | 3.56 | below the threshold | below the threshold | below the threshold | below the threshold | below the threshold | below the threshold | below the threshold | pKd (MPDZ_5, O75970): below the threshold; pKd (DLG1_2, Q12959): below the threshold; pKd (PDZD2_2, O15018): below the threshold; pKd (GRIP2_5, Q9C0E4): below the threshold; pKd (NHERF2_2, Q15599): below the threshold; pKd (SNTA1, Q13424): below the threshold |
